Laboratory results from PMC4601081, “A Single α Helix Drives Extensive Remodeling of the Proteasome Lid and Completion of Regulatory Particle Assembly” (Cell, 2015).
One block for each binder: values may come before it.

B4: Rpn5, subunit of LP2 and lid purified from yeast (natural protein, S. cerevisiae, UniProt Q12250 1-445, looked up)
chain: MSRDAPIKADKDYSQILKEEFPKIDSLAQNDCNSALDQLLVLEKKTRQASDLASSKEVLAKIVDLLASRNKWDDLNEQLTLLSKKHGQLKLSIQYMIQKVMEYLKSSKSLDLNTRISVIETIRVVTENKIFVEVERARVTKDLVEIKKEEGKIDEAADILCELQVETYGSMEMSEKIQFILEQMELSILKGDYSQATVLSRKILKKTFKNPKYESLKLEYYNLLVKISLHKREYLEVAQYLQEIYQTDAIKSDEAKWKPVLSHIVYFLVLSPYGNLQNDLIHKIQNDNNLKKLESQESLVKLFTTNELMRWPIVQKTYEPVLNEDDLAFGGEANKHHWEDLQKRVIEHNLRVISEYYSRITLLRLNELLDLTESQTETYISDLVNQGIIYAKVNRPAKIVNFEKPKNSSQLLNEWSHNVDELLEHIETIGHLITKEEIMHGLQAK
notes: Rpn5, S. cerevisiae proteasome lid subunit; source: purified from S. cerevisiae as part of LP2 or lid

Tests used:
Details in all cases: both partners purified
[1] = target: T1, lid particle 2 (LP2), recombinant (S. cerevisiae, UniProt P40016 1-523; Q12250 1-445; Q12377 1-434; Q06103 1-429; Q08723 1-338; Q04062 …); assay: native gel or EMSA; RP assembly assay: recombinant components 1 uM each with 10 uM Rpn10 in 26S buffer (50 mM Tris-HCl pH 7.5, 5 mM MgCl2, 10% glycerol, 1 mM ATP), 30°C 20 min; native PAGE at 4°C; Coomassie or immunoblot (FLAG on Rpt1, HA on Rpn7, Rpn12)
T1 construct: Rpn3, S. cerevisiae proteasome lid subunit; Rpn5, S. cerevisiae proteasome lid subunit; Rpn6, S. cerevisiae proteasome lid subunit; Rpn7, S. cerevisiae proteasome lid subunit; Rpn8, S. cerevisiae proteasome lid subunit; Rpn9, S. cerevisiae proteasome lid subunit; Rpn11, S. cerevisiae proteasome lid subunit; Sem1, S. cerevisiae proteasome lid subunit; legends speak of 'untagged LP2'; operons as in …
T1 sequence (P43588 whole entry, one chain of several): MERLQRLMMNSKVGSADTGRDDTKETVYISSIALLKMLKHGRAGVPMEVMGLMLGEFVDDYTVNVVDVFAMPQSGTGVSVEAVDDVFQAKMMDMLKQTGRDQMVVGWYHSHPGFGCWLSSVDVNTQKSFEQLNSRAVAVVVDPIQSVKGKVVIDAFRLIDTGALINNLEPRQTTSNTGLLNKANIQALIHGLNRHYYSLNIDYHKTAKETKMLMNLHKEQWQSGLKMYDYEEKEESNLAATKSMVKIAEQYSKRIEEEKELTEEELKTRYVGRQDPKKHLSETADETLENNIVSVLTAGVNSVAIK

[2] = target: T2, Rpn3, subunit of LP2 and lid purified from yeast (S. cerevisiae, UniProt P40016 1-523); assay: cross-linking; QCLMS of LP2 purified from yeast as a whole complex: BS3-d0 / BS3-d4 at 1:200 protein to cross-linker, Buffer HA, 30°C 1 h; monomeric cross-linked complex cut from SDS-PAGE, trypsin, LC-MS/MS
T2 construct: Rpn3, S. cerevisiae proteasome lid subunit; source: purified from S. cerevisiae as part of LP2 or lid
T2 sequence (looked up): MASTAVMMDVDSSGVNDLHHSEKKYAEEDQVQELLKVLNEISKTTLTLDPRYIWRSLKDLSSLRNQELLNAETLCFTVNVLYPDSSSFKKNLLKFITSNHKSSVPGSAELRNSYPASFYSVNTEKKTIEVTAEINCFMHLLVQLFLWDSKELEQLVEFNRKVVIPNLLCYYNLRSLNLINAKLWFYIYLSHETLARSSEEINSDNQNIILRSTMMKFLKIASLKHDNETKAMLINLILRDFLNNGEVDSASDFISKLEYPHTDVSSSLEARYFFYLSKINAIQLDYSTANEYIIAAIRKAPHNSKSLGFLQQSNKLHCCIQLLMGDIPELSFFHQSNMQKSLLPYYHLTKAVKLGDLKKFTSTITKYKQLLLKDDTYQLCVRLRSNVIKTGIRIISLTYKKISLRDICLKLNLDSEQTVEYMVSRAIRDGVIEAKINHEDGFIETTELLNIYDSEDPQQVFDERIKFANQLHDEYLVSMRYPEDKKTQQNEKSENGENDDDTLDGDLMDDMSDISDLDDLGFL

[3] = target: T3, Rpn7, subunit of LP2 and lid purified from yeast (S. cerevisiae, UniProt Q06103 1-429); assay: as above
T3 construct: Rpn7, S. cerevisiae proteasome lid subunit; source: purified from S. cerevisiae as part of LP2 or lid
T3 sequence (looked up): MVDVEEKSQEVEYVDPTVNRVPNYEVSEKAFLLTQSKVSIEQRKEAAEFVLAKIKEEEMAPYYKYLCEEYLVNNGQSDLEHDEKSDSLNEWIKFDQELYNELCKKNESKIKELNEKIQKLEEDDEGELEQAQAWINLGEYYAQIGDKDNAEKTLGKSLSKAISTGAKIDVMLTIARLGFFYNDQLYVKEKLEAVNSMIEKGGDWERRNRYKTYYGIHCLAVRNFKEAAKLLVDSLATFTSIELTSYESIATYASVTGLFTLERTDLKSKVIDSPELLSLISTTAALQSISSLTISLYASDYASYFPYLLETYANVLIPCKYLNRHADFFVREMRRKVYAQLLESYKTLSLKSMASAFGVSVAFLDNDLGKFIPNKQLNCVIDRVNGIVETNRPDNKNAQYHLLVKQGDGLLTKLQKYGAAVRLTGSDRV

[4] = target: T4, Rpn8, subunit of LP2 and lid purified from yeast (S. cerevisiae, UniProt Q08723 1-338); assay: cross-linking; QCLMS of lid purified from yeast as a whole complex: BS3-d0 / BS3-d4 at 1:200 protein to cross-linker, Buffer HA, 30°C 1 h; monomeric cross-linked complex cut from SDS-PAGE, trypsin, LC-MS/MS
T4 construct: Rpn8, S. cerevisiae proteasome lid subunit; source: purified from S. cerevisiae as part of LP2 or lid
T4 sequence (looked up): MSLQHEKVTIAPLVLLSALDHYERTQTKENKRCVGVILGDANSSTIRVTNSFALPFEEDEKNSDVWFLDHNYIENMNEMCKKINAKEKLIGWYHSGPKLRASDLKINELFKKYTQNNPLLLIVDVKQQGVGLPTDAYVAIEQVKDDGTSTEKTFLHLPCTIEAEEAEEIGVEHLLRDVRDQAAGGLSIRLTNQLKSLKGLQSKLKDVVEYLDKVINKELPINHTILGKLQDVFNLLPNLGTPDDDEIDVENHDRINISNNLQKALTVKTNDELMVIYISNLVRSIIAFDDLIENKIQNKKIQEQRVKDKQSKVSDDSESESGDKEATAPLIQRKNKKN

[5] = target: T2, Rpn3, subunit of LP2 and lid purified …; assay: negative-stain EM; single-particle 3D reconstruction of LP2 purified from yeast at 16 Å; ~50 nM complex in Buffer A, 2% uranyl acetate
[6] = target: B4; assay: cross-linking; QCLMS of lid purified from yeast as a whole complex: BS3-d0 / BS3-d4 at 1:200 protein to cross-linker, Buffer HA, 30°C 1 h; monomeric cross-linked complex cut from SDS-PAGE, trypsin, LC-MS/MS
[7] = target: T2, Rpn3, subunit of LP2 and lid purified …; assay: as above

B1: Rpn12-E271K, recombinant (natural protein, S. cerevisiae, UniProt P32496 1-274, looked up)
chain: MPSLAELTKSLSIAFENGDYAACEKLLPPIKIELIKNNLLIPDLSIQNDIYLNDLMITKRILEVGALASIQTFNFDSFENYFNQLKPYYFSNNHKLSESDKKSKLISLYLLNLLSQNNTTKFHSELQYLDKHIKNLEDDSLLSYPIKLDRWLMEGSYQKAWDLLQSGSQNISEFDSFTDILKSAIRDEIAKNTELSYDFLPLSNIKALLFFNNEKETEKFALERNWPIVNSKVYFNNQSKEKADYEDEMMHEEDQKTNIIEKAMDYAISIKNIV
notes: Rpn12, S. cerevisiae proteasome lid subunit, Glu271 to lysine
binding result [1]: binds

Binder: B4
binding result [7]: binds

Further lines, results first:

binding result [2]: binds | binding result [3]: binds | binding result [4]: binds
B2: Sem1, subunit of LP2 and lid purified from yeast (natural protein, S. cerevisiae, UniProt O94742 1-89, looked up)
chain: MSTDVAAAQAQSKIDLTKKKNEEINKKSLEEDDEFEDFPIDTWANGETIKSNAVTQTNIWEENWDDVEVDDDFTNELKAELDRYKRENQ
notes: Sem1, S. cerevisiae proteasome lid subunit; source: purified from S. cerevisiae as part of LP2 or lid

binding result [5]: binds | binding result [6]: binds
B3: Rpn6, subunit of LP2 and lid purified from yeast (natural protein, S. cerevisiae, UniProt Q12377 1-434, looked up)
chain: MSLPGSKLEEARRLVNEKQYNEAEQVYLSLLDKDSSQSSAAAGASVDDKRRNEQETSILELGQLYVTMGAKDKLREFIPHSTEYMMQFAKSKTVKVLKTLIEKFEQVPDSLDDQIFVCEKSIEFAKREKRVFLKHSLSIKLATLHYQKKQYKDSLALINDLLREFKKLDDKPSLVDVHLLESKVYHKLRNLAKSKASLTAARTAANSIYCPTQTVAELDLMSGILHCEDKDYKTAFSYFFESFESYHNLTTHNSYEKACQVLKYMLLSKIMLNLIDDVKNILNAKYTKETYQSRGIDAMKAVAEAYNNRSLLDFNTALKQYEKELMGDELTRSHFNALYDTLLESNLCKIIEPFECVEISHISKIIGLDTQQVEGKLSQMILDKIFYGVLDQGNGWLYVYETPNQDATYDSALELVGQLNKVVDQLFEKASVLY
notes: Rpn6, S. cerevisiae proteasome lid subunit; Also stands as the whole protein for the region row on the E. coli truncations; source: purified from S. cerevisiae as part of LP2 or lid
